Residue numbers refer to the chain shown, from its start. Numbers in names are those of the source.

The source of these data is publication PMC6826200, “An oligomeric state‐dependent switch in the ER enzyme FICD regulates AMPylation and deAMPylation of BiP” (The EMBO Journal, 2019).

First the molecules themselves.
T1: biotinylated-AviTag-FICD^H363A (human, UniProt Q9BVA6 104-445, H363A, biotin on the AviTag)
T1 construct: FICD (HYPE), human, residues 104-445 (the limits are those told for all purified FICD proteins); also called N-terminally biotinylated FICD^H363A; UK 2422; not shown: AviTag, N-terminal, kept
T1 sequence (looked up): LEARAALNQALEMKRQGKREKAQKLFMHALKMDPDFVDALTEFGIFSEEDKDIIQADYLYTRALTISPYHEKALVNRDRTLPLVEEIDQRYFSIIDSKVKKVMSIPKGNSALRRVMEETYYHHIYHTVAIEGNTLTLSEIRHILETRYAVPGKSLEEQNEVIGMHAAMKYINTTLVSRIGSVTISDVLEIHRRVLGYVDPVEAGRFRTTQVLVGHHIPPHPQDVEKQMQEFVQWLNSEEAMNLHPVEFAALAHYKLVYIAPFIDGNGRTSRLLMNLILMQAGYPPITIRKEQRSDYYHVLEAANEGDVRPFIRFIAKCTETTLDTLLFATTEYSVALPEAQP

B1: catalytically inactive, dimeric FICD^H363A (residues 104-445) (domain or fragment, human, UniProt Q9BVA6 104-445, looked up)
chain: T1 sequence (looked up)
notes: FICD (HYPE), human, residues 104-445; Dimeric as analyte on BiP; in the rows with m14 and m15 one of its protomers pairs with one labelled protomer; also called dFICD^H363A; UK 1954; source: E. coli T7 Express lysY/Iq, purified (Ni-NTA, on-column Ulp1 cleavage, anion exchange, SEC)
B2: FICD^K256S (residues 104-445) (domain or fragment, human, UniProt Q9BVA6 104-445, looked up)
chain: T1 sequence (looked up) with K153S, A260H
notes: FICD (HYPE), human, residues 104-445; also called Lys256Ser; dimer relay mutant; source: E. coli T7 Express lysY/Iq, purified (Ni-NTA, on-column Ulp1 cleavage, anion exchange, SEC)
B3: wild-type FICD (amino acid residues 104-445) (domain or fragment, human, UniProt Q9BVA6 104-445, looked up)
chain: T1 sequence (looked up) with A260H
notes: FICD (HYPE), human, residues 104-445; Homodimer in solution; its rows measure this dimerisation, so copies is left empty; also called HYPE; dFICD; source: E. coli T7 Express lysY/Iq, purified (Ni-NTA, on-column Ulp1 cleavage, anion exchange, SEC)
B4: FICD^G299S (residues 104-445) (domain or fragment, human, UniProt Q9BVA6 104-445, looked up)
chain: T1 sequence (looked up) with G196S, A260H
notes: FICD (HYPE), human, residues 104-445; also called Gly299Ser; source: E. coli T7 Express lysY/Iq, purified (Ni-NTA, on-column Ulp1 cleavage, anion exchange, SEC)
B5: non-oxidised FICD^A252C-C421S (residues 104-445) (domain or fragment, human, UniProt Q9BVA6 104-445, looked up)
chain: T1 sequence (looked up) with A149C, A260H, C318S
notes: FICD (HYPE), human, residues 104-445; also called non-disulphide-bonded FICD^A252C-C421S; UK 2219; source: E. coli T7 Express lysY/Iq, purified; a separate preparation not subjected to oxidation with glutathione
B6: FICD^E242A (residues 104-445) (domain or fragment, human, UniProt Q9BVA6 104-445, looked up)
chain: T1 sequence (looked up) with E139A, A260H
notes: FICD (HYPE), human, residues 104-445; also called dimer relay mutant; source: E. coli T7 Express lysY/Iq, purified (Ni-NTA, on-column Ulp1 cleavage, anion exchange, SEC)
B7: FICD^K256A (residues 104-445) (domain or fragment, human, UniProt Q9BVA6 104-445, looked up)
chain: T1 sequence (looked up) with K153A, A260H
notes: FICD (HYPE), human, residues 104-445; also called dimeric dimer relay mutant FICD^K256A; source: E. coli T7 Express lysY/Iq, purified; gel-filtered into 10 mM Tris-HCl pH 8.0, 150 mM NaCl, 1 mM TCEP for crystallisation
B8: cysteine-free FICD^C421S (residues 104-445) (domain or fragment, human, UniProt Q9BVA6 104-445, looked up)
chain: T1 sequence (looked up) with A260H, C318S
notes: FICD (HYPE), human, residues 104-445; also called UK 2161; source: E. coli T7 Express lysY/Iq, purified by the protocol of the disulphide-linked dimers
B9: catalytically inactive, monomeric FICD^L258D-H363A (residues 104-445) (domain or fragment, human, UniProt Q9BVA6 104-445, looked up)
chain: T1 sequence (looked up) with L155D
notes: FICD (HYPE), human, residues 104-445; also called mFICD^H363A; source: E. coli T7 Express lysY/Iq, purified (Ni-NTA, on-column Ulp1 cleavage, anion exchange, SEC)
B10: FICD^S288C-H363A-C421S-TMR (dimerisation-sensitive fluorescent probe) (domain or fragment, human, UniProt Q9BVA6 104-445, looked up)
chain: T1 sequence (looked up) with S185C, C318S
modifications: tetramethylrhodamine (TMR-5-maleimide) on Cys288 (labelling efficiency 41%); unlabelled cysteines quenched with NEM
notes: FICD (HYPE), human, residues 104-445; also called FICD-TMR; UK 2473
B11: Oregon Green-labelled FICD^NC (wild-type FICD carrying an N-terminal cysteine) (domain or fragment, human)
chain: CLEARAALNQALEMKRQGKREKAQKLFMHALKMDPDFVDALTEFGIFSEEDKDIIQADYLYTRALTISPYHEKALVNRDRTLPLVEEIDQRYFSIIDSKVKKVMSIPKGNSALRRVMEETYYHHIYHTVAIEGNTLTLSEIRHILETRYAVPGKSLEEQNEVIGMHAAMKYINTTLVSRIGSVTISDVLEIHRRVLGYVDPVEAGRFRTTQVLVGHHIPPHPQDVEKQMQEFVQWLNSEEAMNLHPVEFAALAHYKLVYIHPFIDGNGRTSRLLMNLILMQAGYPPITIRKEQRSDYYHVLEAANEGDVRPFIRFIAKCTETTLDTLLFATTEYSVALPEAQP
modifications: Oregon Green 488 on the N-terminal cysteine (labelling efficiency 74%)
notes: N-terminal cysteine added for site-specific labelling; FICD (HYPE), human, residues 104-445; also called UK 2339; source: E. coli, purified, labelled with Oregon Green 488-iodoacetamide, SEC

The target in series [1] is T2, biotinylated-AviTag-haBiP^T229A-V461F (Chinese hamster, UniProt G3I8R9 19-654, T229A | V461F, biotin on the AviTag).
T2 construct: BiP, Chinese hamster; Immobilised nucleotide-free and, where indicated, saturated with 2 mM ATP on the sensor; also called BiP^T229A-V461F:Apo; BiP:ATP
Briefly: BLI; biotinylated BiP^T229A-V461F immobilised on streptavidin biosensors and saturated with 2 mM ATP; FICD His363Ala variants at 250 nM, association or dissociation without nucleotide or with ATP 8 mM or ADP 2 mM; HKM plus 0.05% Triton X-100, 30°C. The conditions noted are these: both partners purified. In general terms: In BLI a coated tip is dipped into the sample, and binding shifts an interference pattern.

Series [2] addresses B10. Nature of the series: other fluorescence titration; 2.5 nM FICD^S288C-H363A-C421S-TMR with unlabelled FICD or nucleotide as titrant in HKTx, 45 min at 10°C; de-quenching of TMR fluorescence (excitation 535 nm, emission 585 nm). The conditions noted are these: both partners purified.
Series [3] has as its target T1, biotinylated-AviTag-FICD^H363A. Briefly: BLI; 3 nM biotinylated-AviTag-FICD^H363A incubated 10 min at 25°C with 300 nM FICD^H363A, hetero-labelled dimers loaded on streptavidin biosensors; dissociation into HKTx with or without 5 mM nucleotide; signal of sensors incubated with FICD^L258D-H363A subtracted; dimer to monomers. The settings on record: both partners purified.

Series [4] deals with the molecule itself. Nature of the series: SEC; analytical SEC-3 HPLC column in HKMC (50 mM HEPES-KOH pH 7.4, 150 mM KCl, 10 mM MgCl2, 1 mM CaCl2), 25°C; proteins at 20 μM, or at 0.2-50 μM after 16 h at 25°C; approximate Kd from elution peak time against concentration; dimer to monomers. For orientation: SEC sorts molecules by how far they enter the pores of the column.
Series [5] concerns the molecule itself. Nature of the series: crystal structure; sitting drop vapour diffusion, protein at 9 mg/ml in 10 mM Tris-HCl pH 8.0, 150 mM NaCl, 1 mM TCEP, with 10 mM MgATP or MgAMPPNP where applicable.
Series [6] concerns the molecule itself. Briefly: other fluorescence titration; 2.5 nM FICD^S288C-H363A-C421S-TMR with unlabelled FICD or nucleotide as titrant in HKTx, 45 min at 10°C; de-quenching of TMR fluorescence (excitation 535 nm, emission 585 nm).
Series [7] deals with the molecule itself. Briefly: AUC; fluorescence-detected sedimentation velocity; Oregon Green-labelled FICD from 1.6 μM to 31 pM; 50 mM HEPES-KOH pH 7.4, 150 mM KCl, 10 mM MgCl2, 1 mM CaCl2, 0.3 mM TCEP, 0.1% Tween-20, 0.15 mg/ml BSA; 45,000 rpm, 20°C; monomer-dimer isotherm of signal-averaged s; dimer to monomers.

T2 sequence (G3I8R9 19-654 T229A/V461F): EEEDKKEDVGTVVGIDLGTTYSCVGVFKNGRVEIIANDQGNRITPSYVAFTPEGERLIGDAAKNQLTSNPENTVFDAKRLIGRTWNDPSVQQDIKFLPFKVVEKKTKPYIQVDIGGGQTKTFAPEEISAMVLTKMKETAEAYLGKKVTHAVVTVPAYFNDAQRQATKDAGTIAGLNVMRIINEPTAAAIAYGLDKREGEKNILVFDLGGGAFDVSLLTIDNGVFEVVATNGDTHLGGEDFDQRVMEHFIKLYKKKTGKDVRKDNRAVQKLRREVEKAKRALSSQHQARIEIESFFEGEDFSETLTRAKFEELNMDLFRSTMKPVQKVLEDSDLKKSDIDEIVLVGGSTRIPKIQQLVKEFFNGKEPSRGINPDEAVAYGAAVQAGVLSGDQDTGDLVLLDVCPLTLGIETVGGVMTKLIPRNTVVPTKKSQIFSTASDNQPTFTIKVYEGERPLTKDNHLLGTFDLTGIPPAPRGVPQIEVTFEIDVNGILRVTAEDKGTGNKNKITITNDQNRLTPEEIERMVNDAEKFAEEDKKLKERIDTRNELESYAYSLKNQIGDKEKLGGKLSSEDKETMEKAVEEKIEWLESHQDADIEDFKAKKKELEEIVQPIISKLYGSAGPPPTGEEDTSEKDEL

Take B1: the binding result in series [1] and in series [2] was “binds” in each case. Also, the “fold increase of the dimer dissociation rate with 5 mM ATP against no nucleotide” value in series [3] was found to be 3 fold. A word on the Kd: it is the concentration at which binding is half-saturated. The stoichiometry N is a count of units in the complex or per binding partner. On to B2, for which the Kd in series [4] is < 400 nM. In addition, in series [5], the “stoichiometry N” value is 2 molecules in the biological unit. Regarding B3, the “stoichiometry N” value was 2 in series [4] and 2 molecules in the biological unit in series [5]. B4 gave a dissociation constant Kd in series [4] of 9500 nM. As for B5, the binding result in series [4] was “binds”.

On to B6, for which the Kd in series [4] is < 400 nM. Regarding B7, in series [5], the “stoichiometry N” value was 2 molecules in the biological unit. Turning to B8, the binding result in series [4] was “binds”.

Consider B9, for which the binding result in series [1] is “binds”.

With B10, the binding result in series [6] is recorded as “binds”.

Turning to B11, the Kd in series [7] is 1.2 nM.
